20 sequences from the Immune Epitope Database (IEDB) can be followed below.

One assay concerns the target HLA-B*53:01. Nature of the assay: IEDB peptide-MHC binding, purified MHC/competitive/radioactivity; filed as Kd, often an IC50 or EC50 that approximates it; ≥ and ≤ were set here for values at or beyond the usual limits of such assays.
For assay [1], the target named is HLA-B*57:01. The assay is described as above.
The target in assay [2] is HLA-B*58:01. The assay is described as above.
Assay [3] addresses HLA-B*51:01. The experiment in a line: IEDB peptide-MHC binding, purified MHC/direct/fluorescence; filed as Kd, often an IC50 or EC50 that approximates it; ≥ and ≤ were set here for values at or beyond the usual limits of such assays.
In a further assay the target is HLA-B*07:02. The description is as above.
Assay [4] concerns the target HLA-B*40:01. Nature of the assay: IEDB peptide-MHC binding, purified MHC/competitive/fluorescence; filed as Kd, often an IC50 or EC50 that approximates it; ≥ and ≤ were set here for values at or beyond the usual limits of such assays.
Assay [5] concerns the target HLA-B*15:01. The assay is described as above. The conditions noted are these: source organism: Escherichia coli O139:H28 str. E24377A.
Assay [6] deals with HLA-A*01:01. The experiment in a line: IEDB peptide-MHC binding, purified MHC/direct/fluorescence; filed as Kd, often an IC50 or EC50 that approximates it; ≥ and ≤ were set here for values at or beyond the usual limits of such assays. The conditions noted are these: source organism: Orthohantavirus andesense.
Another assay concerns the target HLA-A*02:01. The description is as above. The conditions noted are these: source organism: Orthohantavirus andesense.
The target of the next assay is HLA-A*02:12. The assay is described as above. The conditions noted are these: source organism: Orthohantavirus andesense.
For another assay, the target named is HLA-A*03:01. The description is as above. The conditions noted are these: source organism: Orthohantavirus andesense.
Another assay addresses HLA-A*11:01. The description is as above. The conditions noted are these: source organism: Orthohantavirus andesense.
For a further assay, the target named is HLA-A*29:02. Described as above. The conditions noted are these: source organism: Orthohantavirus andesense.
The target of a further assay is HLA-A*31:01. Described as above. The conditions noted are these: source organism: Orthohantavirus andesense.
For assay [7], the target named is HLA-A*68:02. The description is as above. The conditions noted are these: source organism: Orthohantavirus andesense.
The target of another assay is HLA-A*69:01. The description is as above. The conditions noted are these: source organism: Orthohantavirus andesense.
The target in another assay is HLA-B*08:01. The description is as above. The conditions noted are these: source organism: Orthohantavirus andesense.
The target in assay [8] is HLA-B*15:01. The description is as above. The conditions noted are these: source organism: Orthohantavirus andesense.
For the next assay, the target named is HLA-B*18:01. Described as above. The conditions noted are these: source organism: Orthohantavirus andesense.
The next assay addresses HLA-B*27:05. The description is as above. The conditions noted are these: source organism: Orthohantavirus andesense.
Assay [9] addresses HLA-B*40:01. The description is as above. The conditions noted are these: source organism: Orthohantavirus andesense.
The target of the next assay is HLA-B*46:01. The description is as above. The conditions noted are these: source organism: Orthohantavirus andesense.
The target of another assay is HLA-B*48:01. Described as above. The conditions noted are these: source organism: Orthohantavirus andesense.
The target of assay [10] is HLA-B*57:01. Described as above. The conditions noted are these: source organism: Orthohantavirus andesense.
For assay [11], the target named is HLA-B*58:01. The assay is described as above. The conditions noted are these: source organism: Orthohantavirus andesense.
In a further assay the target is HLA-A*26:01. Nature of the assay: IEDB peptide-MHC binding, purified MHC/competitive/fluorescence; filed as Kd, often an IC50 or EC50 that approximates it; ≥ and ≤ were set here for values at or beyond the usual limits of such assays. The conditions noted are these: source organism: Orthohantavirus andesense.
For another assay, the target named is HLA-B*15:17. The description is as above. The conditions noted are these: source organism: Orthohantavirus andesense.
In the next assay the target is HLA-B*27:03. The description is as above. The conditions noted are these: source organism: Orthohantavirus andesense.
In a further assay the target is HLA-B*39:01. The description is as above. The conditions noted are these: source organism: Orthohantavirus andesense.
For assay [12], the target named is HLA-B*51:01. The description is as above. The conditions noted are these: source organism: Orthohantavirus andesense.
Assay [13] has as its target HLA-A*01:01. Nature of the assay: IEDB peptide-MHC binding, purified MHC/competitive/radioactivity; filed as Kd, often an IC50 or EC50 that approximates it; ≥ and ≤ were set here for values at or beyond the usual limits of such assays.
The target of assay [14] is HLA-A*68:02. Described as above.
In a further assay the target is HLA-B*15:42. Nature of the assay: IEDB peptide-MHC binding, purified MHC/competitive/fluorescence; filed as Kd, often an IC50 or EC50 that approximates it; ≥ and ≤ were set here for values at or beyond the usual limits of such assays.
A further assay deals with HLA-B*45:06. Described as above.
A further assay deals with HLA-B*83:01. Described as above.
[15] abbreviates: source organism: Dengue virus 4 Philippines/H241/1956.
Where [16] appears, read: source organism: Brucella abortus.
Where [17] appears, read: source organism: Dengue virus 3 Martinique/1243/1999.
Setting [18] is: source organism: Dengue virus 1 Brazil/97-11/1997.
The mark [19] stands for this setting: source organism: Yersinia pestis Nepal516.
Where [20] appears, read: source organism: human gammaherpesvirus 4.

One may read the Kd as the concentration at which binding is half-saturated.

Where only a bound is given, the exact number is not on record here.

For IAVASGLLW, the Kd with HLA-B*53:01 (setting [15]) came out at 31.2 nM; with HLA-B*57:01 [1] (setting [15]), 2.21 nM; with HLA-B*58:01 [2] (setting [15]), 0.661 nM.

In the assay with HLA-B*51:01 [3] (source organism: Giardia lamblia ATCC 50803), MPSSYAAGM returned a Kd of 863 nM.

As for GADTSEVHW, the Kd with HLA-B*57:01 [1] (setting [15]) was 987 nM; with HLA-B*58:01 [2] (setting [15]) it was 66.3 nM.

Take LPAIIRPSF: the Kd with HLA-B*07:02 (setting [16]) is 104 nM; in the assay with HLA-B*51:01 [3] (setting [16]) it was no less than 20000 nM.

On to GTSLTQKVVI, for which the figures for the Kd in the assay with HLA-B*57:01 [1] (setting [17]) and in the assay with HLA-B*58:01 [2] (setting [17]) were 2300 nM and 194 nM, respectively.

Turning to ASGKLVTQW, the Kd with HLA-B*57:01 [1] (setting [15]) was 137 nM; with HLA-B*58:01 [2] (setting [15]), 15.7 nM.

Regarding TEAKIISLL, the Kd with HLA-B*40:01 [4] (source organism: Shigella flexneri 5 str. 8401) is 8.1 nM.

In the case of AENHFLVGL, the Kd with HLA-B*15:01 [5] was no less than 20000 nM; in the assay with HLA-B*40:01 [4] (source organism: Escherichia coli O139:H28 str. E24377A) it was 2.5 nM.

In the case of SIKFKRKLM, the Kd with HLA-A*01:01 [6], with HLA-A*02:01, in the assay with HLA-A*02:12, in the assay with HLA-A*03:01, with HLA-A*11:01 and in the assay with HLA-A*29:02 was no less than 20000 nM throughout. The Kd in the assay with HLA-A*31:01 was no less than 20000 nM; in the assay with HLA-A*68:02 [7] it was no less than 20000 nM; with HLA-A*69:01, no less than 20000 nM; in the assay with HLA-B*07:02 (source organism: Orthohantavirus andesense) it was no less than 20000 nM; with HLA-B*08:01, no less than 5000 nM; in the assay with HLA-B*15:01 [8], no less than 20000 nM. The Kd in the assay with HLA-B*18:01, with HLA-B*27:05, with HLA-B*40:01 [9], with HLA-B*46:01, in the assay with HLA-B*48:01 and with HLA-B*57:01 [10] was no less than 20000 nM in each case. In addition, the Kd in the assay with HLA-B*58:01 [11], with HLA-A*26:01, with HLA-B*15:17, with HLA-B*27:03, with HLA-B*39:01 and with HLA-B*51:01 [12] was no less than 20000 nM in each case.

Turning to ESWEEVPYLG, the Kd with HLA-B*58:01 [2] (source organism: Dengue virus 2 Jamaica/1409/1983) came out at 589 nM.

In the assay with HLA-B*40:01 [4] (source organism: Influenza A virus (A/Hokkaido/20/89(H3N2))), QELSDAPFL registered a Kd of 2 nM.

VASAAQRRGR: in the assay with HLA-B*58:01 [2] (setting [18]), the Kd is 160 nM.

On to QTQRSGVLW, for which the figures for the Kd in the assay with HLA-B*57:01 [1] (setting [17]) and with HLA-B*58:01 [2] (setting [17]) were 18.7 nM and 1.47 nM, respectively.

As to TALFSGVSW, the figures for the Kd in the assay with HLA-B*53:01 (setting [17]) and with HLA-B*57:01 [1] (setting [17]) were 49.8 nM and 0.589 nM, respectively.

With LTGGVTLFF, the Kd with HLA-A*01:01 [13] (setting [18]) came to 18900 nM; with HLA-B*58:01 [2] (setting [18]) it was 107 nM.

In the case of ESSKNQTWQI, the Kd was no less than 70400 nM in the assay with HLA-A*01:01 [13] (setting [15]), 701 nM with HLA-A*68:02 [14] (setting [15]), no less than 23000 nM with HLA-B*57:01 [1] (setting [15]) and 1590 nM with HLA-B*58:01 [2] (setting [15]).

In the case of AEIEDLIFL, in the assay with HLA-B*40:01 [4] (source organism: Influenza A virus (A/swine/Italy/1509-6/97(H1N1))), the Kd was 0.5 nM.

Take AEYLYADGI: the Kd in the assay with HLA-B*15:42 (setting [19]) was no less than 5000 nM; with HLA-B*40:01 [4] (setting [19]), 4.3 nM; in the assay with HLA-B*45:06 (setting [19]) it was no less than 5000 nM; with HLA-B*83:01 (setting [19]), no less than 5000 nM.

Take SASSMINGVV: the values for the dissociation constant (Kd) with HLA-A*68:02 [14] (setting [17]), with HLA-B*57:01 [1] (setting [17]) and in the assay with HLA-B*58:01 [2] (setting [17]) were 165 nM, 1990 nM and 6380 nM, respectively.

Turning to RPRPRTPEW, the Kd was no less than 5000 nM in the assay with HLA-B*15:42 (setting [20]), no less than 5000 nM with HLA-B*45:06 (setting [20]) and 426 nM with HLA-B*83:01 (setting [20]).
